# Data reported in patent EP0701605B2, “IMPROVED ENZYMES AND DETERGENTS CONTAINING THEM” (BASF SE, priority 1994, dated 1995).
# Where a chain is given by its changes, count along the chain named. In names and notes the source's numbering stands.
# B1: Bacillus lentus DSM 5483 alkaline protease (BLAP) variant F54, S3T + V41 + R99G + A188P + V193M + V199I + L211D, SEQ ID NO:17 (Lederbergia lenta; … (protein)
# chain: AQTIPWGISRVQAPAAHNRGLTGSGVKVAVLDTGISTHPDLNIRGGASFVPGEPSTQDGNGHGTHVAGTIAALNNSIGVLGVAPSAELYAVKVLGADGGGAISSIAQGLEWAGNNGMHVANLSLGSPSPSATLEQAVNSATSRGVLVVAASGNSGASSISYPARYANAMAVGATDQNNNRASFSQYGPGLDIMAPGVNIQSTYPGSTYASDNGTSMATPHVAGAAALVKQKNPSWSNVQIRNHLKNTATSLGSTNLYGSGLVNAEAATR
# notes: made in house; host or cells: Bacillus subtilis DB104
# B2: Bacillus lentus DSM 5483 alkaline protease (BLAP) variant F43, S3T + V41 + R99G + A188P + V193M + V1991, SEQ ID NO:11 (Lederbergia lenta; … (protein)
# chain: B1 chain with D211L
# notes: as for B1
# B3: Bacillus lentus DSM 5483 alkaline protease (BLAP) variant F11, S3T + R99S + A188P + V193M + V1991, SEQ ID NO:10 (Lederbergia lenta; A188P/R99S/S3T/V193M/V199I) (protein)
# chain: B1 chain with I4V, G99S, D211L
# notes: as for B1
# B4: Bacillus lentus DSM 5483 alkaline protease (BLAP) variant F45, S3T + V41 + R99S + A188P + V193M + V1991, SEQ ID NO:13 (Lederbergia lenta; … (protein)
# chain: B1 chain with G99S, D211L
# notes: as for B1
# B5: Bacillus lentus DSM 5483 alkaline protease (BLAP) variant F46, S3T + V41 + S154E + A188P + V193M + V1991, SEQ ID NO:14 (Lederbergia lenta; … (protein)
# chain: B1 chain with G99R, S154E, D211L
# notes: as for B1
# B6: Bacillus lentus DSM 5483 alkaline protease (BLAP) variant F55, S3T + V41 + S154E + A188P + V193M + V1991 + L211D, SEQ ID NO:18 (Lederbergia lenta; … (protein)
# chain: B1 chain with G99R, S154E
# notes: as for B1
# B7: Bacillus lentus DSM 5483 alkaline protease (BLAP) variant M131, S3T + V41 + A188P + V193M + V1991, SEQ ID NO: 24 (Lederbergia lenta; A188P/S3T/V193M/V199I/V4I) (protein)
# chain: B1 chain with G99R, D211L
# notes: site-specific mutagenesis of DNA encoding the mature form of wild type BLAP; made in house; host or cells: Bacillus subtilis DB104
# B8: Bacillus lentus DSM 5483 alkaline protease (BLAP) variant F49, S3T + V4I + A188P + V193M + V1991 + L211D, SEQ ID NO:16 (Lederbergia lenta; … (protein)
# chain: B1 chain with G99R
# notes: as for B1
# B9: Bacillus lentus DSM 5483 alkaline protease (BLAP) variant F44, S3T + V41 + R99A + A188P + V193M + V1991, SEQ ID NO:12 (Lederbergia lenta; … (protein)
# chain: B1 chain with G99A, D211L
# notes: as for B1
# B10: Bacillus lentus DSM 5483 alkaline protease (BLAP) variant F47, S3T + V41 + S154D + A188P + V193M + V1991, SEQ ID NO:15 (Lederbergia lenta; … (protein)
# chain: B1 chain with G99R, S154D, D211L
# notes: as for B1
# Substrate: C[C@H](NC(=O)CCC(=O)O)C(=O)N[C@@H](C)C(=O)N1CCC[C@H]1C(=O)N[C@@H](Cc1ccccc1)C(=O)Nc1ccc([N+](=O)[O-])cc1
# Test: AAPF-pNA assay, kinetic parameters
# Type: biochemical, Bacillus lentus DSM 5483
# Conditions: 100 mM Tris pH 8.6, 25°C
# Description: Two different protease assays were used. With the HPE method protease activity was established at a single concentration of casein as substrate. In the AAPF-pNA assay initial rates of succinyl-L-alanyl-L-alanyl-L-prolyi-L-phenylalanyl-p-nitroanilide (AAPF-pNA; Bachem Bioscience, Philadelphia, PA) supported catalysis were used to determine the kinetic parameters Km, kcat, and kcat/Km.
# Protease samples were diluted with 50% (v/v) 1,2-propanediol in 100 mM Tris, adjusted with 2 N HCl to pH 8.6 at 25°C ('Tris-propanediol buffer'), in which they were stable for at least 6 h at room temperature. A stock solution of 160 mM AAPF-pNA was prepared in dimethylsulfoxide dried over molecular sieve beads (Aldrich; 4 A, 4-8 mesh) for at least 24 h prior to use. Fixed point assays were performed at 25°C with 1.6 mM AAPF-pNA in 100 mM Tris, adjusted with 2 N HCl to pH 8.6 at 25°C, in a total volume of 1.020 ml. The substrate was added to the assay buffer 1 minute prior to the assay initiation and the reaction was started by addition of enzyme at a final concentration of 20 ng to 1.3 µg of protein per ml (0.75 to 48.5 nM enzyme) depending on specific activity. Release of p-nitroanilide was monitored at 410 nm, and a molar extinction coefficient of 8,480 M^-1cm^-1 was used to calculate amount and concentration of product formed (DelMar, E.G., Largman, C., Brodrick, J.W., and Geokas, M.C. (1979) Anal Biochem. 99, 316-320).
# Kinetic parameters were calculated from a velocity vs. substrate concentration plot constructed from initial rates measured once each at 12 different AAPF-pNA concentrations ranging from 0.16 to 3.2 mM. Data were fitted to a hyperbolic curve and proportionally weighted using the program ENZFITTER (Leatherbarrow, R.J. (1987) ENZFITTER. Biosoft, Cambridge, UK). A nominal molecular weight of 26.8 kDa was used in all calculations that required the interconversion of protein concentration and molarity of protease enzyme (Table 4).
# [1] = other: F54, AAPF-pNA 0.16 to 3.2 mM
# [2] = other: F43, AAPF-pNA 0.16 to 3.2 mM
# [3] = other: F11, AAPF-pNA 0.16 to 3.2 mM
# [4] = other: F45, AAPF-pNA 0.16 to 3.2 mM
# [5] = other: F46, AAPF-pNA 0.16 to 3.2 mM
# [6] = other: F55, AAPF-pNA 0.16 to 3.2 mM
# [7] = other: M131, AAPF-pNA 0.16 to 3.2 mM
# [8] = other: F49, AAPF-pNA 0.16 to 3.2 mM
# [9] = other: F44, AAPF-pNA 0.16 to 3.2 mM
# [10] = other: F47, AAPF-pNA 0.16 to 3.2 mM
protein,measurement,setting,value
B1,Km,[1],5500 µM
same,kcat,[1],7 s⁻¹
same,kcat/Km,[1],1300 M⁻¹ s⁻¹
B2,Km,[2],1730 µM
same,kcat,[2],171 s⁻¹
same,kcat/Km,[2],99000 M⁻¹ s⁻¹
B3,Km,[3],1880 µM
same,kcat,[3],174 s⁻¹
same,kcat/Km,[3],92000 M⁻¹ s⁻¹
B4,Km,[4],3050 µM
same,kcat,[4],208 s⁻¹
same,kcat/Km,[4],68000 M⁻¹ s⁻¹
B5,Km,[5],2000 µM
same,kcat,[5],358 s⁻¹
same,kcat/Km,[5],179000 M⁻¹ s⁻¹
B6,Km,[6],4300 µM
same,kcat,[6],11 s⁻¹
same,kcat/Km,[6],2600 M⁻¹ s⁻¹
B7,Km,[7],980 µM
same,kcat,[7],153 s⁻¹
same,kcat/Km,[7],156000 M⁻¹ s⁻¹
B8,Km,[8],3500 µM
same,kcat,[8],38 s⁻¹
same,kcat/Km,[8],11000 M⁻¹ s⁻¹
B9,Km,[9],2490 µM
same,kcat,[9],257 s⁻¹
same,kcat/Km,[9],103000 M⁻¹ s⁻¹
B10,Km,[10],2000 µM
same,kcat,[10],249 s⁻¹
same,kcat/Km,[10],124000 M⁻¹ s⁻¹
